Test system: MS2 coat protein
Experiment: apparent KD of MS2 coat protein; designed switch direction (-1 OFF switch, 1 ON switch): 1; higher = weaker reporter binding
Procedure, shortened: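 The buffer was Tris-HCl pH 7.5 with KCl, MgCl2, BSA, DTT, tRNA and Tween-20. In it, SNAP-549-labelled MS2 coat protein was titrated in doubling steps from 0.7 or 1.5 nM to 3 µM over chip-bound RNA switches transcribed by stalled E. coli RNA polymerase on Illumina chips. Apparent KD is the per-design median over clusters of curve fits to normalised fluorescence.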

[1] = input ligand: microRNA oligo, concentration not stated

Sequence: GUUACAUGAGGAUCACCCAUGUAUGUGUGGGAGUAAGUGUCUUAGGAUAUCUAUGGUUUAAUUUAAGAGAAGGAAGAUUGUUGU [JMF's solution 72] (Eterna round: R96, puzzle: Same State NG 3)
- apparent KD of MS2 coat protein (input ligand: FMN 200 uM): 111 nM
- apparent KD of MS2 coat protein [1]: 73.9 nM
- apparent KD of MS2 coat protein (input ligand: none): 96.6 nM

Sequence: CUGAAAUGUCAAGGAUAUCACGUCGAUUAGACGUGAGAAGGUGAUCUGCACAUGAGGAUCACCCAUGUGUUACAUGGGAGUCAG [Brourd's SSNG1/1-A2 mod 16] (Eterna round: R96, puzzle: Same State NG 1)
- apparent KD of MS2 coat protein (input ligand: FMN 200 uM): 600 nM
- apparent KD of MS2 coat protein [1]: 324 nM
- apparent KD of MS2 coat protein (input ligand: none): 891 nM

Sequence: ACAUGAGACCAAGGAUAUUUUGUACCUACAUGUGACAUGAGGAUCACCCAUGUGGUAAGUAUGAGAAAGAAGGUGGAGAUAUGU [Equivalence 22 - Jieux - Same State NG 2] (Eterna round: R96, puzzle: Same State NG 2)
- apparent KD of MS2 coat protein (input ligand: FMN 200 uM): 22.8 nM
- apparent KD of MS2 coat protein [1]: 22.5 nM
- apparent KD of MS2 coat protein (input ligand: none): 37 nM

Sequence: CGUUGGACAUCCAGCAAGACAUGAGGAUCACCCAUGUAGGCGCAGGAUAUGCGGGUUCGGUGCUCGCAGAAGGGUGAAGAAAAC [Araerar] (Eterna round: R96, puzzle: Same State NG 3)
- apparent KD of MS2 coat protein (input ligand: FMN 200 uM): 35.5 nM
- apparent KD of MS2 coat protein [1]: 21.3 nM
- apparent KD of MS2 coat protein (input ligand: none): 30.4 nM

Sequence: GCUCGAAUCACAACCAACAUGAGGAUCACCCAUGUGUGUUGGUAGGAUAUCGUUUCUAAGGGAAACGAGAAGGGCCGAACGAGC [SameState NG3 #8] (Eterna round: R96, puzzle: Same State NG 3)
- apparent KD of MS2 coat protein (input ligand: FMN 200 uM): 18.9 nM
- apparent KD of MS2 coat protein [1]: 12.4 nM
- apparent KD of MS2 coat protein (input ligand: none): 21.7 nM

Sequence: AGAUCAUGACGAGGAUAUGGUACAUGAGGAUCACCCAUGUAUGUACCACGACGGAAACGUCGAAUCCAGAAGGCGUCGUGAUCA [Mat - Same State NG 2 - JL mod - D23] (Eterna round: R96, puzzle: Same State NG 2)
- apparent KD of MS2 coat protein (input ligand: FMN 200 uM): 47.5 nM
- apparent KD of MS2 coat protein [1]: 100 nM
- apparent KD of MS2 coat protein (input ligand: none): 127 nM

Sequence: AGUCCAGCCUAAGCUGGACAAAAGCAUGUACAUGAGGAUCACCCAUGUCAUGUACAAGCUUUUUGCUCGUCUUAAAA [Mat - hsa-mir-208a - Mod of JL - D4] (puzzle: Sensor for hsa-mir-208a)
- apparent KD of MS2 coat protein (Eterna round: R95, input ligand: FMN 200 uM): 684 nM
- apparent KD of MS2 coat protein (Eterna round: R95, input ligand: microRNA oligo, concentration not stated): 16.1 nM
- apparent KD of MS2 coat protein (Eterna round: R95, input ligand: none): 550 nM

Sequence: GGCCUGAGUCAAGGAUAUGCUACCGUUUCGGUAGCAGAAGGUGAUCACAUGAGGAUCACCCAUGUUUACGCGAAGACGCGCGCC (Eterna round: R96, puzzle: Same State NG 1)
- apparent KD of MS2 coat protein (input ligand: FMN 200 uM): 128 nM
- apparent KD of MS2 coat protein [1]: 56.7 nM
- apparent KD of MS2 coat protein (input ligand: none): 35.7 nM

Sequence: AUAAAACAUGAGGAUCACCCAUGUCAACAAAGUCGAGGAUAUGGGCAAAUAAAAUAAGAACCAGAAGGCGAAUAAU [Teenbexe] (Eterna round: R96, puzzle: Same State 1)
- apparent KD of MS2 coat protein (input ligand: FMN 200 uM): 42.1 nM
- apparent KD of MS2 coat protein [1]: 207 nM
- apparent KD of MS2 coat protein (input ligand: none): 273 nM

Sequence: ACAUGAGACUGAGGAUAUGUUGUACCUACAUGUGACAUGAGGAUCACCCAUGUGGUAAGUAUGAUACAGAAGGCAGAGAUAUGU [Equivalance 63 - Jieux - Same State NG 2] (Eterna round: R96, puzzle: Same State NG 2)
- apparent KD of MS2 coat protein (input ligand: FMN 200 uM): 14.2 nM
- apparent KD of MS2 coat protein [1]: 14.5 nM
- apparent KD of MS2 coat protein (input ligand: none): 22.1 nM

Sequence: AAAAAACAUGAGGAUCACCCAUGUCAAAAGACAUGAGGAUAUGUACAGACUUCGGUCUGUACAGAAGGCAUGUAAA [SS1 - 1015] (Eterna round: R96, puzzle: Same State 1)
- apparent KD of MS2 coat protein (input ligand: FMN 200 uM): 28.9 nM
- apparent KD of MS2 coat protein [1]: 241 nM
- apparent KD of MS2 coat protein (input ligand: none): 319 nM

Sequence: AGUCCAGCCUGAGCUGGACAAAUGCAAGUACAUGAGGAUCACCCAUGUUCAUGUACAAGCUUUUUGCUCGUCUUAAA [JL zipper 59] (Eterna round: R96, puzzle: Sensor for hsa-mir-208a)
- apparent KD of MS2 coat protein (input ligand: FMN 200 uM): 853 nM
- apparent KD of MS2 coat protein [1]: 21.3 nM
- apparent KD of MS2 coat protein (input ligand: none): 931 nM

Sequence: AUACCAUCGGGAGGAUAUGGCACCUUAUUGGUGCCAGAAGGUCUAACAUGAGGAUCACCCAUGUGGGAGUGGUCUAAUGACCAC [Eli NG1ss - 87] (Eterna round: R96, puzzle: Same State NG 1)
- apparent KD of MS2 coat protein (input ligand: FMN 200 uM): 144 nM
- apparent KD of MS2 coat protein [1]: 127 nM
- apparent KD of MS2 coat protein (input ligand: none): 186 nM

— the supplement of paper PMC9170038
